Bridge positions count the residues as written; N and C are the ends. Square brackets hold non-standard residues; d marks the D form. S5 = C=CCCC[C@](C)(N)C(=O)O; Nle = CCCC[C@H](N)C(=O)O
B1: SP-50 (peptide)
peptide: Ac-FIDEEVLS[S5]LVI[S5][Nle]ALDRI-NH2
modifications: staple 9-13
SMILES: CCCC[C@H](NC(=O)[C@]1(C)CCCC=CCCC[C@](C)(NC(=O)[C@H](CO)NC(=O)[C@H](CC(C)C)NC(=O)[C@@H](NC(=O)[C@H](CCC(=O)O)NC(=O)[C@H](CCC(=O)O)NC(=O)[C@H](CC(=O)O)NC(=O)[C@@H](NC(=O)[C@H](Cc2ccccc2)NC(C)=O)[C@@H](C)CC)C(C)C)C(=O)N[C@@H](CC(C)C)C(=O)N[C@@H](C(C)C)C(=O)N[C@@H]([C@@H](C)CC)C(=O)N1)C(=O)N[C@@H](C)C(=O)N[C@@H](CC(C)C)C(=O)N[C@@H](CC(=O)O)C(=O)N[C@@H](CCCNC(=N)N)C(=O)N[C@H](C(N)=O)[C@@H](C)CC
B2: SP-60 (peptide)
peptide: Ac-FIDEEVLA[S5]LVI[S5]AALD-NH2
modifications: staple 9-13
SMILES: CC[C@H](C)[C@H](NC(=O)[C@H](Cc1ccccc1)NC(C)=O)C(=O)N[C@@H](CC(=O)O)C(=O)N[C@@H](CCC(=O)O)C(=O)N[C@@H](CCC(=O)O)C(=O)N[C@H](C(=O)N[C@@H](CC(C)C)C(=O)N[C@@H](C)C(=O)N[C@@]1(C)CCCC=CCCC[C@@](C)(C(=O)N[C@@H](C)C(=O)N[C@@H](C)C(=O)N[C@@H](CC(C)C)C(=O)N[C@@H](CC(=O)O)C(N)=O)NC(=O)[C@H]([C@@H](C)CC)NC(=O)[C@H](C(C)C)NC(=O)[C@H](CC(C)C)NC1=O)C(C)C
B3: SP-42 (peptide)
peptide: Ac-FIDEEVL[Nle][S5]LVI[S5][Nle]ALDRE-NH2
modifications: staple 9-13
SMILES: CCCC[C@H](NC(=O)[C@H](CC(C)C)NC(=O)[C@@H](NC(=O)[C@H](CCC(=O)O)NC(=O)[C@H](CCC(=O)O)NC(=O)[C@H](CC(=O)O)NC(=O)[C@@H](NC(=O)[C@H](Cc1ccccc1)NC(C)=O)[C@@H](C)CC)C(C)C)C(=O)N[C@@]1(C)CCCC=CCCC[C@@](C)(C(=O)N[C@@H](CCCC)C(=O)N[C@@H](C)C(=O)N[C@@H](CC(C)C)C(=O)N[C@@H](CC(=O)O)C(=O)N[C@@H](CCCNC(=N)N)C(=O)N[C@@H](CCC(=O)O)C(N)=O)NC(=O)[C@H]([C@@H](C)CC)NC(=O)[C@H](C(C)C)NC(=O)[C@H](CC(C)C)NC1=O
B4: SP-69 (peptide)
peptide: Ac-FIDEQVL[Nle][S5]LVI[S5][Nle]ALDRI-NH2
modifications: staple 9-13
SMILES: CCCC[C@H](NC(=O)[C@H](CC(C)C)NC(=O)[C@@H](NC(=O)[C@H](CCC(N)=O)NC(=O)[C@H](CCC(=O)O)NC(=O)[C@H](CC(=O)O)NC(=O)[C@@H](NC(=O)[C@H](Cc1ccccc1)NC(C)=O)[C@@H](C)CC)C(C)C)C(=O)N[C@@]1(C)CCCC=CCCC[C@@](C)(C(=O)N[C@@H](CCCC)C(=O)N[C@@H](C)C(=O)N[C@@H](CC(C)C)C(=O)N[C@@H](CC(=O)O)C(=O)N[C@@H](CCCNC(=N)N)C(=O)N[C@H](C(N)=O)[C@@H](C)CC)NC(=O)[C@H]([C@@H](C)CC)NC(=O)[C@H](C(C)C)NC(=O)[C@H](CC(C)C)NC1=O
B5: SP-49 (peptide)
peptide: Ac-FIDEEVS[Nle][S5]LVI[S5][Nle]ALDRI-NH2
modifications: staple 9-13
SMILES: CCCC[C@H](NC(=O)[C@H](CO)NC(=O)[C@@H](NC(=O)[C@H](CCC(=O)O)NC(=O)[C@H](CCC(=O)O)NC(=O)[C@H](CC(=O)O)NC(=O)[C@@H](NC(=O)[C@H](Cc1ccccc1)NC(C)=O)[C@@H](C)CC)C(C)C)C(=O)N[C@@]1(C)CCCC=CCCC[C@@](C)(C(=O)N[C@@H](CCCC)C(=O)N[C@@H](C)C(=O)N[C@@H](CC(C)C)C(=O)N[C@@H](CC(=O)O)C(=O)N[C@@H](CCCNC(=N)N)C(=O)N[C@H](C(N)=O)[C@@H](C)CC)NC(=O)[C@H]([C@@H](C)CC)NC(=O)[C@H](C(C)C)NC(=O)[C@H](CC(C)C)NC1=O
B6: SP-52 (peptide)
peptide: Ac-FIDEEVL[Nle][S5]LSI[S5][Nle]ALDRI-NH2
modifications: staple 9-13
SMILES: CCCC[C@H](NC(=O)[C@H](CC(C)C)NC(=O)[C@@H](NC(=O)[C@H](CCC(=O)O)NC(=O)[C@H](CCC(=O)O)NC(=O)[C@H](CC(=O)O)NC(=O)[C@@H](NC(=O)[C@H](Cc1ccccc1)NC(C)=O)[C@@H](C)CC)C(C)C)C(=O)N[C@@]1(C)CCCC=CCCC[C@@](C)(C(=O)N[C@@H](CCCC)C(=O)N[C@@H](C)C(=O)N[C@@H](CC(C)C)C(=O)N[C@@H](CC(=O)O)C(=O)N[C@@H](CCCNC(=N)N)C(=O)N[C@H](C(N)=O)[C@@H](C)CC)NC(=O)[C@H]([C@@H](C)CC)NC(=O)[C@H](CO)NC(=O)[C@H](CC(C)C)NC1=O
B7: SP-44 (peptide)
peptide: Ac-SIDEEVL[Nle][S5]LVI[S5][Nle]ALDRI-NH2
modifications: staple 9-13
SMILES: CCCC[C@H](NC(=O)[C@H](CC(C)C)NC(=O)[C@@H](NC(=O)[C@H](CCC(=O)O)NC(=O)[C@H](CCC(=O)O)NC(=O)[C@H](CC(=O)O)NC(=O)[C@@H](NC(=O)[C@H](CO)NC(C)=O)[C@@H](C)CC)C(C)C)C(=O)N[C@@]1(C)CCCC=CCCC[C@@](C)(C(=O)N[C@@H](CCCC)C(=O)N[C@@H](C)C(=O)N[C@@H](CC(C)C)C(=O)N[C@@H](CC(=O)O)C(=O)N[C@@H](CCCNC(=N)N)C(=O)N[C@H](C(N)=O)[C@@H](C)CC)NC(=O)[C@H]([C@@H](C)CC)NC(=O)[C@H](C(C)C)NC(=O)[C@H](CC(C)C)NC1=O
B8: SP-45 (peptide)
peptide: Ac-FSDEEVL[Nle][S5]LVI[S5][Nle]ALDRI-NH2
modifications: staple 9-13
SMILES: CCCC[C@H](NC(=O)[C@H](CC(C)C)NC(=O)[C@@H](NC(=O)[C@H](CCC(=O)O)NC(=O)[C@H](CCC(=O)O)NC(=O)[C@H](CC(=O)O)NC(=O)[C@H](CO)NC(=O)[C@H](Cc1ccccc1)NC(C)=O)C(C)C)C(=O)N[C@@]1(C)CCCC=CCCC[C@@](C)(C(=O)N[C@@H](CCCC)C(=O)N[C@@H](C)C(=O)N[C@@H](CC(C)C)C(=O)N[C@@H](CC(=O)O)C(=O)N[C@@H](CCCNC(=N)N)C(=O)N[C@H](C(N)=O)[C@@H](C)CC)NC(=O)[C@H]([C@@H](C)CC)NC(=O)[C@H](C(C)C)NC(=O)[C@H](CC(C)C)NC1=O
B9: SP-48 (peptide)
peptide: Ac-FIDEESL[Nle][S5]LVI[S5][Nle]ALDRI-NH2
modifications: staple 9-13
SMILES: CCCC[C@H](NC(=O)[C@H](CC(C)C)NC(=O)[C@H](CO)NC(=O)[C@H](CCC(=O)O)NC(=O)[C@H](CCC(=O)O)NC(=O)[C@H](CC(=O)O)NC(=O)[C@@H](NC(=O)[C@H](Cc1ccccc1)NC(C)=O)[C@@H](C)CC)C(=O)N[C@@]1(C)CCCC=CCCC[C@@](C)(C(=O)N[C@@H](CCCC)C(=O)N[C@@H](C)C(=O)N[C@@H](CC(C)C)C(=O)N[C@@H](CC(=O)O)C(=O)N[C@@H](CCCNC(=N)N)C(=O)N[C@H](C(N)=O)[C@@H](C)CC)NC(=O)[C@H]([C@@H](C)CC)NC(=O)[C@H](C(C)C)NC(=O)[C@H](CC(C)C)NC1=O
B10: SP-58 (peptide)
peptide: Ac-FIDEEVL[Nle][S5]LVI[S5][Nle]ALDSI-NH2
modifications: staple 9-13
SMILES: CCCC[C@H](NC(=O)[C@H](CC(C)C)NC(=O)[C@@H](NC(=O)[C@H](CCC(=O)O)NC(=O)[C@H](CCC(=O)O)NC(=O)[C@H](CC(=O)O)NC(=O)[C@@H](NC(=O)[C@H](Cc1ccccc1)NC(C)=O)[C@@H](C)CC)C(C)C)C(=O)N[C@@]1(C)CCCC=CCCC[C@@](C)(C(=O)N[C@@H](CCCC)C(=O)N[C@@H](C)C(=O)N[C@@H](CC(C)C)C(=O)N[C@@H](CC(=O)O)C(=O)N[C@@H](CO)C(=O)N[C@H](C(N)=O)[C@@H](C)CC)NC(=O)[C@H]([C@@H](C)CC)NC(=O)[C@H](C(C)C)NC(=O)[C@H](CC(C)C)NC1=O
B11: SP-28 (peptide)
peptide: Ac-FIDEEVLA[S5]LVI[S5]AALDR-NH2
modifications: staple 9-13
SMILES: CC[C@H](C)[C@H](NC(=O)[C@H](Cc1ccccc1)NC(C)=O)C(=O)N[C@@H](CC(=O)O)C(=O)N[C@@H](CCC(=O)O)C(=O)N[C@@H](CCC(=O)O)C(=O)N[C@H](C(=O)N[C@@H](CC(C)C)C(=O)N[C@@H](C)C(=O)N[C@@]1(C)CCCC=CCCC[C@@](C)(C(=O)N[C@@H](C)C(=O)N[C@@H](C)C(=O)N[C@@H](CC(C)C)C(=O)N[C@@H](CC(=O)O)C(=O)N[C@@H](CCCNC(=N)N)C(N)=O)NC(=O)[C@H]([C@@H](C)CC)NC(=O)[C@H](C(C)C)NC(=O)[C@H](CC(C)C)NC1=O)C(C)C
B12: SP-29 (peptide)
peptide: Ac-DFIDEEVL[Nle][S5]LVI[S5][Nle]ALDRI-NH2
modifications: staple 10-14
SMILES: CCCC[C@H](NC(=O)[C@H](CC(C)C)NC(=O)[C@@H](NC(=O)[C@H](CCC(=O)O)NC(=O)[C@H](CCC(=O)O)NC(=O)[C@H](CC(=O)O)NC(=O)[C@@H](NC(=O)[C@H](Cc1ccccc1)NC(=O)[C@H](CC(=O)O)NC(C)=O)[C@@H](C)CC)C(C)C)C(=O)N[C@@]1(C)CCCC=CCCC[C@@](C)(C(=O)N[C@@H](CCCC)C(=O)N[C@@H](C)C(=O)N[C@@H](CC(C)C)C(=O)N[C@@H](CC(=O)O)C(=O)N[C@@H](CCCNC(=N)N)C(=O)N[C@H](C(N)=O)[C@@H](C)CC)NC(=O)[C@H]([C@@H](C)CC)NC(=O)[C@H](C(C)C)NC(=O)[C@H](CC(C)C)NC1=O

These binders were tested against T1, His6-tagged p300 (AA 323-423) (UniProt Q09472 323-423) (assay: TR-FRET HIF1a/p300 displacement; grade = IC50 >700 nM).
T1 construct: range 323-423; also called p300-CH; not shown: His6 tag
Procedure, shortened: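 Peptides competed with HIF1α C-terminal transactivation domain for His6-p300-CH (complex 300 nM final) during 1 h at RT in 20 mM HEPES pH 7.4, 150 mM NaCl, 7.5 mM CHAPS, 1 mM DTT. Anti-Flag-K (0.5 μM) and anti-His-D2 (4 nM) were added for 2 h. IC50 was derived from the TR-FRET ratio by one-site fit.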

T1 sequence (Q09472 323-423 limits assumed): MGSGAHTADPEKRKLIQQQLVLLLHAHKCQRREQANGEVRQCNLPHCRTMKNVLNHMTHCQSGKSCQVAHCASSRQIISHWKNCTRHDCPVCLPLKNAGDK

Row | Binder | IC50 [nM]
1 | B1 | > 700
2 | B2 | > 700
3 | B3 | > 700
4 | B4 | > 700
5 | B5 | > 700
6 | B6 | > 700
7 | B7 | > 700
8 | B8 | > 700
9 | B9 | > 700
10 | B10 | > 700
11 | B11 | > 700
12 | B12 | > 700

Source: patent US20190225650A1, “PEPTIDOMIMETIC MACROCYCLES AND USE THEREOF IN REGULATING HIF1ALPHA” (AILERON THERAPEUTICS, INC., priority 2013, published 2019)
